Here are results for four sequences from paper PMC4705688.

Data set [1] concerns the target His-Cmr HTH- del195-244 (Mycobacterium tuberculosis H37Rv) (UniProt P9WMH5). As to the kind of experiment: EMSA.
Data set [2] deals with His-Cmr HTH+ del217-244 (Mycobacterium tuberculosis H37Rv) (UniProt P9WMH5). The experiment in a line: EMSA.
Data set [3] concerns the target His-Cmr (Mycobacterium tuberculosis H37Rv) (UniProt P9WMH5). As to the kind of experiment: EMSA. Background: In EMSA bound probe runs differently from free probe, usually more slowly.
Data set [4] shares this target. As to the kind of experiment: DNase I footprinting.

Chain of His-Cmr HTH+ del217-244 (Mycobacterium tuberculosis H37Rv) (P9WMH5 1-216): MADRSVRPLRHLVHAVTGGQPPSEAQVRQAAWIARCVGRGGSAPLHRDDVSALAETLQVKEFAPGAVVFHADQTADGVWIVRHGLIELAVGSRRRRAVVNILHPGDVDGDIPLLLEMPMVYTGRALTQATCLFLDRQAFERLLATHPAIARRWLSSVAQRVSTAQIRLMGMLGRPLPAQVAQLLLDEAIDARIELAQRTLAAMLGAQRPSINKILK
Chain of His-Cmr HTH- del195-244 (Mycobacterium tuberculosis H37Rv) (P9WMH5 1-194): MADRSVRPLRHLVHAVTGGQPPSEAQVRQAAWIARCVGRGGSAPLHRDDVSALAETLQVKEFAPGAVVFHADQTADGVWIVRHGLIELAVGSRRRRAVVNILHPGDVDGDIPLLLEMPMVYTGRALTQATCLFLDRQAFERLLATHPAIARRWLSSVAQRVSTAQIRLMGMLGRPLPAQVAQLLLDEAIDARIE
Chain of His-Cmr (Mycobacterium tuberculosis H37Rv) (P9WMH5 whole entry): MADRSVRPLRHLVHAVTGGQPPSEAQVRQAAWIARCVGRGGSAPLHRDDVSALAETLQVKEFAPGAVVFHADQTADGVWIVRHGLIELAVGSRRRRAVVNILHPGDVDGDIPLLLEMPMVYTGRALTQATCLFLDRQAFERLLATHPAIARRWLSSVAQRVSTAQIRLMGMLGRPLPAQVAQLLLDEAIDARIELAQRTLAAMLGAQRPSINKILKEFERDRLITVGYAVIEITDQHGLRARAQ

Turning to “ATCTCAACTATGTGGCCTTGTCCTTAGTCACCGCCGACGGACACACCCTGCTGCACCACCCGTATACCCAGAGCGAGGTGGACATCAAGAAGAACGTGTTCACGATGATGATGCGGCTACCGTGGTTGTATCGCGTTCCCGTACATACGATTCACAAATTTGGCCACATGCTCAGCGGCATGGCGATCCGGATCGTC (double strand) [2G5 full]”, the figures for the binding result in data set [1], in data set [2] and in data set [3] were “no binding”, “binds” and “binds”, respectively.

“CGGACTGCTGCTGCTCGCCGTTGTCTCCGGTGATTGGGTTGCCCATACCTCCTGGGGCGCAGCGTGGTTCAGCTTGTCACCGGTGACACTGTGTTGGCTTCTCATCAGCTATGGCTTCGCAGCTTCGGTGCTGCCGGTGTGGCTGCTGCTCGCGCCACGCGACTACCTGTCAACGTTCATGAAGG (double strand) [1C1 full]”: the binding entry is listed as “no binding” in data set [1], “binds” in data set [2], “binds” in data set [3] and “binds” in data set [4].

Turning to “TAAAGTCACCGCCGGGGCCGATGTTCGCAGTCGCGGGCTCGGTGCCATCCATATCGTTGCGCAGCGCGATGCCGTGCCAATGCACCGACGTCGGATCACCCAGACGGTTGGTCACCGAGACGACAATCTCATCCCCGACGGTGGCCCGGATCAGTGGTCCGGGGATGGTGTTGCCGTAGGTCAGCGTGCTGACGATCGGCCCACCCAGGTCGATCCTCGCCGGCTGGGGGGTCAGCGTGGCGGTAACCGTTCGCCCACTGTGCGGCCGGGCCGCCTCGGCCGCGTCGATTGCAGCGGT (double strand) [Rv0846c]”, the binding result in data set [3] is on record as “binds”.

As for “TCTATGGCGGCCAGGGACGCACATTGTGGGCTTCGGGGTAATTGTCTTGGGTTGGCTGCCCCGCGCTGCACAGGGTTACTGGCCCAGGAGGCGGACGTCATCGTGTTAACACCCGTCGGGATAACCTGGGAGCGGCGCAGCCAAGGAAGGAACCAACCGTCCGGTGTCAGACCTAGCCAGAACCGACGTCGTGCTGATC (double strand) [2C5 full]”, the results for the binding result in data set [1], in data set [2] and in data set [3] were “no binding”, “binds” and “binds”, respectively.
